This is an account of results in the DeepSol protein solubility set.

This series is described as follows: soluble on expression in E. coli; label from the status in PepcDB or PDB records.
As for “MKRSSTVLAALLALLLVATNDAARHRKYRQTYQDIDSDDDDTSDVQITVFPSEKEVRDGRDVSFECRARTSDNSVYPTVRWARVGGPLPSSAHDSGGRLTINPVQLSDAGTYICVSDYNGNTVEARATLSVVSYGPQEVSNGLRQAGQCMADEKACGNNECVKNDYVCDGEPDCRDRSDEANCPAISRTCEPNEFKCNNNKCVQKMWLCDGDDDCGDNSDELNCNAKPSSSDCKPTEFQCHDRRQCVPSSFHCDGTNDCHDGSDEVGCVQPTVVDPPQTNLQVPRGTTFSLTCKAVAVPEPYINWRLNWGPVCEPPRCLQTSEGGYGTLTIHDAQPVDQGAYTCEAINVKGRVLATPDCIVRVVDDPRPQPPQPPTAPPQRASCDTRGAVTPYPNNYGTCECKSQVTGPNCDQCKPGAFHLSEKSPEGCLKCFCFGVSNDCRSSGHYRTKDRLMFAGDAEGVTISDIEERTIDRNTPFSFFKTGYLTFDGTTDGVAKYWRLPQRFLGDKVTAYGGKMEFEIEFSGSGHHSSEPMVVLKGNQNILVHRVRNQEHVLRSDSPVRITVETYETNYEQLNGAAATREDLLMVLADLDAFLIRATHVAHQTSTSLGDVSWEIAVDRYTPDGLALEVEQCVCPPGYLGTSCEDCAPGYERSGYGPYLGTCVPIQPRHQQCGPGAVAPTAPAQGQCQCKASVIGPNCDRCAPNSFGLAPTNPQGCIPCFCSGVTQQCSASSYRRTSVSIDYARGDRDQLELTTSDSRQPYSPQTRAELSGQAIEFRSFEEARGQTLYWKLPEKFLGDKVTSYGGTLEYTFKFSGNGNSDQSADVILRGNDIALQYKHREPFYADRENKVQIKIIETSWQRVDGQQATREHLLMTLADLDTLLIKSTYNDDCTDSQLLSANLEFAEPYGQGLTAAEVEQCICPPGYVGTSCEDCAPGYSRTGGGLYLGLCEKCECNGHASQCDKEYGYCLDCQHNTEGDQCERCKPGFVGDARRGTPNDCQPEATRAPCHCNNHSPRGCDSFGRCLLCEHNTEGTHCERCKKGYYGDATKGSPYDCTPCPCPGASDCYLDNEGQVACRICPAGLQGRLCNECAPGYTRSNKPAGRVCEPIGQVTNEDITFVQKPHEGDFARNSPSQNSSGQRRHRRRRIRVRSRFYHH”, the “soluble on expression in E. coli” value is reported as “not soluble”.
Turning to “MKRSTTDSDLAGDAHNETNKKMKSTEEEEIGFSNLDENLVYEVLKHVDAKTLAMSSCVSKIWHKTAQDERLWELICTRHWTNIGCGQNQLRSVVLALGGFRRLHSLYLWPLSKPNPRARFGKDELKLTLSLLSIRYYEKMSFTKRPLPESK”, the “soluble on expression in E. coli” value is recorded as “soluble”.
To “MKRVLIPGVILCGADVAQAVDDKNMYMHFFEEMTVYAPVPVPVNGNTHYTSESIERLPTGNGNISDLLRTNPAVRMDSTQSTSLNQGDIRPEKISIHGASPYQNAYLIDGISATNNLNPANESDASSATNISGMSQGYYLDVSLLDNVTLYDSFVPVEFGRFNGGVIDAKIKRFNADDSKVKLGYRTTRSDWLTSHIDENNKSAFNQGSSGSTYYSPDFKKNFYTLSFNQELADNFGVTAGLSRRQSDITRADYVSNDGIVAGRAQYKNVIDTALSKFTWFASDRFTHDLTLKYTGSSRDYNTSTFPQSDREMGNKSYGLAWDMDTQLAWAKLRTTVGWDHISDYTRHDHDIWYTELSCTYGDITGRCTRGGLGHISQAVDNYTFKTRLDWQKFAVGNVSHQPYFGAEYIYSDAWTERHNQSESYVINAAGKKTNHTIYHKGKGRLGIDNYTLYMADRISWRNVSLMPGVRYDYDNYLSNHNISPRFMTEWDIFANQTSMITAGYNRYYGGNILDMGLRDIRNSWTESVSGNKTLTRYQDLKTPYNDELAMGLQQKIGKNVIARANYVYREAHDQISKSSRTDSATKTTITEYNNDGKTKTHSFSLSFELAEPLHIRQVDINPQIVFSYIKSKGNLSLNNGYEESNTGDNQVVYNGNLVSYDSVPVADFNNPLKISLNMDFTHQPSGLVWANTLAWQEARKARIILGKTNAQYISEYSDYKQYVDEKLDSSLTWDTRLSWTPQFLQQQNLTISADILNVLDSKTAVDTTNTGVATYASGRTFWLDVSMKF” belongs “not soluble”; to “MKSASDPFDLKRFVYAQAPVYRSVVEELRAGRKRGHWMWFVFPQLRGLGSSPLAVRYGISSLEEAQAYLQHDLLGPRLHECTGLVNQVQGRSIEEIFGPPDDLKLCSSMTLFARATDANQDFVALLAKYYGGGEDRRTVALLAVT”, “soluble”.
To “MKSKRLSLVLMTAALGLTACATTQSPTGRSQTLLYSSSQMQQMGDASFAEMKKQQKISGNKKLTQYVNCVANRVTAVLPDQTQKWDVVLFDSEQVNAFALPGGHIGVYTGLLKVASTPDQLATVLGHEVAHVLAQHGNEQVSRSQMTGMGMQIADAALGAGGVSNRDLYMSALGLGAQVGVILPFGRAQESEADIMGLELMARAGFDPAQSVVLWQNMSKAGGGKGPELLSTHPSNNNRIAQLEQLQGQMQPLYQSAKANIKNQCAAPKLEHHHHHH” belongs “not soluble”; to “MKSMPTISRIQRIKEYLSKRKLSQRRKVGVLVDGPNMLRKEFNINLKEIREILSEYGDIKIAKVFLNQYATEKLVEAIENQGFEPIVTSGDVDVRMAVEAMELIYNDSIDAVALVTRDADFKAVLMKAMEMGKETIIIGAEPGFSTALKNSADIAIVLNEDEEKEKGDADEEEIIEV”, “not soluble”; to “MKSPSAGAPDRHASSRSVPDRWNMHKPMLCDSLPTASRTAAAILNLAQREDVTAEALAQLIQTDPALTGRILRFANAPAQGTRRPVASVIDAIDLVGLPAVRQFALSLSLIDAHREGRCEAFDYAAYWQKSLARAVALQSITAQASTVAPKEAFTLGLLADVGRLALATAWPEEYSECLRKADGEALIALERERFATDHDELTRMLLTDWGFPQVFIDALQLSQQDEIRDEGRTGRFARQLALAQHIADHRLAEEPRRAALSPLLRAEARRCGLGDEDLARLLADPPADWLDWTRTIGLPGDAPTGGAEPSRPPPQTDEKLHVLLADDDPIMLARLSRQLEADGHHVASRRDGETALAYALEHQPEMVITDWHMKPMNGLELCRALRESALGGNVYIVMLTASESEDALVEAFGAGIDDYVIKPPSVRVLKARIRAGQRIITLHKKLARERKEIERYSSELAAANRRLELMAHTDQLTGLPNRRYAMDRLEREWAQARTFDRPLSIMMLDLDWFKSINDSLGHDAGDQALVHAARVMRETVRTSDVVCRMGGEEFLIIIPDTAGPAAIQTAERVRSAVEQQQPAKLKLSRPLTASIGVADSTSAPSLKDLLLKADNALYQVKQNGRNGVRYAGLAAALEHHHHHH”, “not soluble”.
As for “MKSRREQSIEEAIVANYLKMMIDNVNVWPRHFLRSEDVYCKNPWTLFVTRDPIILHFGRYFFVNRSVNSGLTDGCEYGCWRIIGRDRVIKSVTTGKILGLKKVYKFCETDRKPKSVFKFLEKEKRRVRDRRIWAMEEYRFASTWKQDYVICKIRRLYPQPFDYMLAQHIRGYYK”, the entry is “soluble”; as for “MKSTGETLNIEEKVFAIADQFDHQGKIVQIKPFGNGNINDTFLVDLDGQTQTSFILQRINHQVFKNPAAVMGNMVRVTTHIKQKLQRQPLERPWLMPEVILTKNNQDHWDSGTGEFWRAISFIAGSESFDILTDPAQAKEVGTALGIFHQLLSDLSPSQLVDTLPGFHHTPIYLQQYQRALAQNPKLTGSLGPEINHCQRVIKTWLDQCGVLETAKAQGQLPLRLMHGDPKVNNILFDRQSGKAVSVIDLDTTKPGLIHYDLGDCLRSGCNLLGEETENWSAVEFDLDLCRAILEGYLPQCQHFLTAADYDYLCPAIVLISFELGLRFFTDYLNGDRYFKVKYPEHNLIRALVQFQLASHIQSQEDAIRRMIEDIRGLEHHHHHH”, “not soluble”; as for “MKTDRLLADTKTIRYEETDLASLISAPYHFRCGIYLICTQGEAVVSTGVQKYIFNEQTELIFLTGGLLQVLETSGDLQVKMLMFPKEAFLNAMLPIDTPYFNYTHEHPCYHHTADERSQKTWRQINLWMDMAQMLFTEPMPQFRGQQEHNFLQSLLMWLFNTIPEKLAVSKQYSRTQLLCHRFMQLIREYSMHEHQVAFYAEKLCISSRYLHKITVRHLDGKKPKQLIDEQLVAEIKVLLNEPRLSVTEIAEQLHFPDQSYLTHFFKKNTGISPKEFRAIKNLG”, “not soluble”.
With “MKTFEELCQENYSRIYKYIFSMTGSKESTEDLIQEVFIAAYEKGEAFLRHEKPAAFLYKTARNMTVTYLKNLKRQRISAMEYLSENIPQDDTDLCETLLMELDRKIDETAYTGQVIGNLNTNQHNLYRQRYVEGKSIKEIASEEGVSETAMRMRLVRLRKEIQDIVKKLKLGEK”, the “soluble on expression in E. coli” value is reported as “not soluble”.
